{"source": "patent US7960155B1", "about": "“Cytochrome p450 monooxygenases and their use for oxidizing organic compounds” (BASF Aktiengesellschaft, priority 1999, dated 2011)", "molecules": {"B1": {"name": "WT: wild-type cytochrome P450 monooxygenase BM-3 from Bacillus megaterium (SEQ ID NO:2) (protein, listed as Bacillus megaterium)", "chain": "TIKEMPQPKTFGELKNLPLLNTDKPVQALMKIADELGEIFKFEAPGRVTRYLSSQRLIKEACDESRFDKNLSQALKFVRDFAGDGLFTSWTHEKNWKKAHNILLPSFSQQAMKGYHAMMVDIAVQLVQKWERLNADEHIEVPEDMTRLTLDTIGLCGFNYRFNSFYRDQPHPFITSMVRALDEAMNKLQRANPDDPAYDENKRQFQEDIKVMNDLVDKIIADRKASGEQSDDLLTHMLNGKDPETGEPLDDENIRYQIITFLIAGHETTSGLLSFALYFLVKNPHVLQKAAEEAARVLVDPVPSYKQVKQLKYVGMVLNEALRLWPTAPAFSLYAKEDTVLGGEYPLEKGDELMVLIPQLHRDKTIWGDDVEEFRPERFENPSAIPQHAFKPFGNGQRACIGQQFALHEATLVLGMMLKHFDFEDHTNYELDIKETLTLKPEGFVVKAKSKKIPLGGIPSPSTEQSAKKVRKKAENAHNTPLLVLYGSNMGTAEGTARDLADIAMSKGFAPQVATLDSHAGNLPREGAVLIVTASYNGHPPDNAKQFVDWLDQASADEVKGVRYSVFGCGDKNWATTYQKVPAFIDETLAAKGAENIADRGEADASDDFEGTYEEWREHMWSDVAAYFNLDIENSEDNKSTLSLQFVDSAADMPLAKMHGAFSTNVVASKELQQPGSARSTRHLEIELPKEASYQEGDHLGVIPRNYEGIVNRVTARFGLDASQQIRLEAEEEKLAHLPLAKTVSVEELLQYVELQDPVTRTQLRAMAAKTVCPPHKVELEALLEKQAYKEQVLAKRLTMLELLEKYPACEMKFSEFIALLPSIRPRYYSISSSPRVDEKQASITVSVVSGEAWSGYGEYKGIASNYLAELQEGDTITCFISTPQSEFTLPKDPETPLIMVGPGTGVAPFRGFVQARKQLKEQGQSLGEAHLYFGCRSPHEDYLYQEELENAQSEGIITLHTAFSRMPNQPKTYVQHVMEQDGKKLIELLDQGAHFYICGDGSQMAPAVEATLMKSYADVHQVSEADARLWLQQLEEKGRYAKDVWAG"}}, "test_system": "blue pigment (indigo/indirubin) production", "settings": "2-liter flask containing 300 ml of TB medium for the triple mutant"}
{"molecule": "B1", "values": [{"measurement": "blue pigment production in culture", "value": "does not have the ability to produce the blue indigo-containing pigment"}]}
